Experimental data from patent US20160130324A1.

Biological target: rhC1s (human) (UniProt P09871)
Experiment: inhibition of C1s cleavage of a colorimetric peptide substrate, mean OD value; C is the midpoint of the 4-parameter fit

rhC1s (human), sequence (P09871 16-688 limits assumed): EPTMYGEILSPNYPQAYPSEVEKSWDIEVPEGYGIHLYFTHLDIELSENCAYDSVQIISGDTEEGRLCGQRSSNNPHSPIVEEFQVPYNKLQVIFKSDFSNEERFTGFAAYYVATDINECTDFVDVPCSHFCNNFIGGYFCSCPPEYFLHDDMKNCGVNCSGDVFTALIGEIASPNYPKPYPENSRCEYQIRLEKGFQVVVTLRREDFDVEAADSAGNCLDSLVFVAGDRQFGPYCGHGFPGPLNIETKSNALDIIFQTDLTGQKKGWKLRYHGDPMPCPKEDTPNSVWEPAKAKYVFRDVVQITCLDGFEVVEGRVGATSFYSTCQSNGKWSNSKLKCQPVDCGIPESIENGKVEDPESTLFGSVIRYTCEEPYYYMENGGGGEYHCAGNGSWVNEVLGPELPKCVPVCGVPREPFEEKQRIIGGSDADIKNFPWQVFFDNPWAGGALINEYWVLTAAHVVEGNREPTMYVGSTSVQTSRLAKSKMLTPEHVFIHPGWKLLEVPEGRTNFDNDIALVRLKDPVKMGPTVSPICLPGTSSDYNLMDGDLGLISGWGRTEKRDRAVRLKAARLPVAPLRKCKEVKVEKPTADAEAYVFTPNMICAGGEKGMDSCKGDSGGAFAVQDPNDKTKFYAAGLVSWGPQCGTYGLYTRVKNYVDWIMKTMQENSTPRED

Row | IC50 | Substance
1 | 1.67 nM | HSA-C1-INH
2 | 1.45 nM | HSA_D3-C1-INH
